Where a chain is given by its changes, count along the chain named.
Columns and labels:
Assay in all cases: cell_activity; CHO iGFFP reporter
LOX 3-4m.2189 = molecular target: T1, LOX 3-4m.2189 (artificial (I-CreI derived))
T1 chain: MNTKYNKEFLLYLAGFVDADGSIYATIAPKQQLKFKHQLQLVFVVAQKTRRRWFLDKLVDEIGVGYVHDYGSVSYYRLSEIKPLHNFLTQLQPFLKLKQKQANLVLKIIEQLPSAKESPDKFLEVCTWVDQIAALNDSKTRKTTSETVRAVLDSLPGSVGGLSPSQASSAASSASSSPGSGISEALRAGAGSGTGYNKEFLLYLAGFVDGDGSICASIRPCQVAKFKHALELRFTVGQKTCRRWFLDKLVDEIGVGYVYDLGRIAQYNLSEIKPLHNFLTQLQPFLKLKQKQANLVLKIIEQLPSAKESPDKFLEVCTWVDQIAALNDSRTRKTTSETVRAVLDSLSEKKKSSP
Description: (§1) A CHO cell reporter system (see WO/2012/167192, FIG. 3) was used to determine whether the engineered meganucleases generated in these studies could recognize and cleave the modified LOX 3-4 recognition sequences in Table 87. To perform the assay, a pair of CHO cell reporter lines were produced, which carried a non-functional Green Fluorescent Protein (GFP) gene expression cassette integrated into the genome of the cell. The GFP gene in each cell line was interrupted by a pair of recognition sequences such that intracellular cleavage of either recognition sequence by a meganuclease would stimulate a homologous recombination event resulting in a functional GFP gene. In both cell lines, one of the recognition sequences was derived from the LOX 3-4 recognition sequence (i.e., those sequences disclosed in Table 87), and the second recognition sequence was specifically recognized by a control meganuclease called “CHO 23/24.” CHO reporter cells comprising a recognition sequence derived from the LOX 3-4 recognition sequence and the CHO 23/24 recognition sequence are referred to herein as “test cells.”
(§2) Novel engineered meganucleases derived from the LOX 3-4x.109 meganuclease were prepared by making amino acid substitutions at one or more positions in the first subunit and one or more positions in the second subunit. These engineered meganucleases were then evaluated for cleavage of the LOX 3-4 recognition sequence modified to have a TCAA center sequence (SEQ ID NO: 331) in the CHO reporter assay according to Example 1.

LOX 3-4m.2165 = molecular target: T2, LOX 3-4m.2165 (artificial (I-CreI derived))
T2 chain: T1 chain with A19S, K48S, G71R, K239S, C241R, R263Q, E271Q
Description: as §1, §2

LOX 3-4m.2157 = molecular target: T3, LOX 3-4m.2157 (artificial (I-CreI derived))
T3 chain: T1 chain with A19S, K48S, K239S, C241K, E271Q
Description: as §1, §2

LOX 3-4m.2229 = molecular target: T4, LOX 3-4m.2229 (artificial (I-CreI derived))
T4 chain: T1 chain with R50T, S72R, E80Q, K139R, R263N, E271Q
Description: as §1, §2

LOX 3-4m.1973 = molecular target: T5, LOX 3-4m.1973 (artificial (I-CreI derived))
T5 chain: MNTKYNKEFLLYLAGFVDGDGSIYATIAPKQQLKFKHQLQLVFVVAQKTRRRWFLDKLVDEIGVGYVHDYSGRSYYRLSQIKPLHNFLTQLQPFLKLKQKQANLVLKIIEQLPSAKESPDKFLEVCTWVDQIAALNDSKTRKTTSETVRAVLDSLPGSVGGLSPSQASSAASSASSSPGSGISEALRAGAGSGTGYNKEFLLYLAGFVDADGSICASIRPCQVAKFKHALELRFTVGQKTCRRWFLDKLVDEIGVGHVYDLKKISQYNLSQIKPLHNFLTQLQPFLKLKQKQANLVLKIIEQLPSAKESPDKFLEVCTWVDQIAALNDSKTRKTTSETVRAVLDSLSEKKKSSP
Description: as §1
as §2, with “subunit. The N-terminal subunit recognizes the reverse complement of the AG portion of the four base pair center sequence, which is CT, and the C-terminal subunit recognizes the GC portion of the […] center sequence.” for “subunit.”, “TTGG” for “TCAA”, “248)” for “331)”, “1. The substitutions in each subunit are provided in Tables 177 and 178, respectively.” for “1.”

LOX 3-4m.1970 = molecular target: T6, LOX 3-4m.1970 (artificial (I-CreI derived))
T6 chain: T5 chain with H257Y, K262G, K263Q, K330R
Description: as §1
as §2, with “subunit. The N-terminal subunit recognizes the reverse complement of the AG portion of the four base pair center sequence, which is CT, and the C-terminal subunit recognizes the GC portion of the […] center sequence.” for “subunit.”, “TTGG” for “TCAA”, “248)” for “331)”, “1. The substitutions in each subunit are provided in Tables 177 and 178, respectively.” for “1.”

LOX 3-4m.1981 = molecular target: T7, LOX 3-4m.1981 (artificial (I-CreI derived))
T7 chain: T5 chain with K239S, C241R, H257Y, K262G, K263S, I264V, K330R
Description: as §1
as §2, with “subunit. The N-terminal subunit recognizes the reverse complement of the AG portion of the four base pair center sequence, which is CT, and the C-terminal subunit recognizes the GC portion of the […] center sequence.” for “subunit.”, “TTGG” for “TCAA”, “248)” for “331)”, “1. The substitutions in each subunit are provided in Tables 177 and 178, respectively.” for “1.”

LOX 3-4m.2045 = molecular target: T8, LOX 3-4m.2045 (artificial (I-CreI derived))
T8 chain: T5 chain with K239S, C241R, H257Y, K262G, K263R, H276R, K330R
Description: as §1
as §2, with “subunit. The N-terminal subunit recognizes the reverse complement of the AG portion of the four base pair center sequence, which is CT, and the C-terminal subunit recognizes the GC portion of the […] center sequence.” for “subunit.”, “TTGG” for “TCAA”, “248)” for “331)”, “1. The substitutions in each subunit are provided in Tables 177 and 178, respectively.” for “1.”

LOX 3-4m.2125 = molecular target: T9, LOX 3-4m.2125 (artificial (I-CreI derived))
T9 chain: T1 chain with A19G, G71A, S72Q, S74A, K139R, G210A, K239S, C241K, A265S, E271Q
Description: as §1
as §2, with “TTAA” for “TCAA”, “341)” for “331)”, “1. The substitutions in each subunit are provided in Tables 174 and 175, respectively.” for “1.”

LOX 3-4m.2145 = molecular target: T10, LOX 3-4m.2145 (artificial (I-CreI derived))
T10 chain: T5 chain with K48N, S71G, G72T, R73V, K139R, H257Y, K262G, K330R
Description: as §1
as §2, with “TTAA” for “TCAA”, “341)” for “331)”, “1. The substitutions in each subunit are provided in Tables 174 and 175, respectively.” for “1.”

LOX 3-4m.2142 = molecular target: T11, LOX 3-4m.2142 (artificial (I-CreI derived))
T11 chain: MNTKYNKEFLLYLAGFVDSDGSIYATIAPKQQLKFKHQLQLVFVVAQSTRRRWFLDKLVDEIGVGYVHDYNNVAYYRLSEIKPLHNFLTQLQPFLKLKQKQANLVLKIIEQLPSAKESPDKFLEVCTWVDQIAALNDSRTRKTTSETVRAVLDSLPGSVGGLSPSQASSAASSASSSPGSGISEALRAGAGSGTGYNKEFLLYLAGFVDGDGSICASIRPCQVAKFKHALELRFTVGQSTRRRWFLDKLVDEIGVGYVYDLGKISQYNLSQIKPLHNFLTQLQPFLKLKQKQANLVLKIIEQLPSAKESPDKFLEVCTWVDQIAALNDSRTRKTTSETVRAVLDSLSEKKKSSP
Description: as §1
as §2, with “TTAA” for “TCAA”, “341)” for “331)”, “1. The substitutions in each subunit are provided in Tables 174 and 175, respectively.” for “1.”

LOX 3-4m.2151 = molecular target: T12, LOX 3-4m.2151 (artificial (I-CreI derived))
T12 chain: T1 chain with A19G, R50S, E80Q, K139R, G210A, K239T, C241K, I264V, E271Q
Description: as §1
as §2, with “TTAA” for “TCAA”, “341)” for “331)”, “1. The substitutions in each subunit are provided in Tables 174 and 175, respectively.” for “1.”

B1: LOX 3-4 TCAA (dsDNA)
DNA 1: GTATAGCATTCAATATACGAAG
DNA 2: CTTCGTATATTGAATGCTATAC
Question: For B1, which activity (LOX 3-4m.2189) is on record?
Answer: The activity was 11.7 % GFP.

Question: And the activity (LOX 3-4m.2165)?
Answer: Its activity is 10.3 % GFP.

Question: What about the activity (LOX 3-4m.2157) of the same binder?
Answer: The activity was 9.79 % GFP.

Question: And the activity (LOX 3-4m.2229)?
Answer: The activity was 11.8 % GFP.

B2: LOX 3-4 TTGG (dsDNA)
DNA 1: GTATAGCATTTGGTATACGAAG
DNA 2: CTTCGTATACCAAATGCTATAC
Question: Which activity (LOX 3-4m.1973) does the source give for B2 here?
Answer: The activity was 14.3 % GFP.

Question: And the activity (LOX 3-4m.1970)?
Answer: Its activity is 13.5 % GFP.

Question: What about the activity (LOX 3-4m.1981) of the same binder?
Answer: Its activity is 13.5 % GFP.

Question: What about the activity (LOX 3-4m.2045) of the same binder?
Answer: Its activity is 14.2 % GFP.

B3: LOX 3-4 TTAA (dsDNA)
DNA 1: GTATAGCATTTAATATACGAAG
DNA 2: CTTCGTATATTAAATGCTATAC
Question: Which activity (LOX 3-4m.2125) does the source give for B3 here?
Answer: The activity was 12.7 % GFP.

Question: What about the activity (LOX 3-4m.2145) of the same binder?
Answer: Its activity is 12.9 % GFP.

Question: And the activity (LOX 3-4m.2142)?
Answer: Its activity is 13.9 % GFP.

Question: And the activity (LOX 3-4m.2151)?
Answer: The activity was 13 % GFP.

— US20220195407, “OPTIMIZATION OF ENGINEERED MEGANUCLEASES FOR RECOGNITION SEQUENCES” (Precision BioSciences, Inc., published 2022)
